Source: patent publication US20240093246

Tested on: cyanobacterial flavodoxin

Row | Substance | flavodoxin photoreduction turnover rate | fold decrease of flavodoxin reduction against WT PSI | linear rate of flavodoxin photoreduction relative to JVD-1b^H6 PSI | linear rate of flavodoxin photoreduction relative to WT^H6 PSI
1 | PSI-MeHydA complex (chimeric photosystem I carrying PsaC-MeHydA, from strain ΨH3^H6) | 0.7±0.1 Flvd s^-1 (PSI)^-1 | lowers flavodoxin reduction by a factor of 6-8 | 12.3±2.4% relative to JVD-1b^H6 PSI | ˜15.9±2.4% that of WT^H6
2 | wild-type photosystem I purified from strain WT^H6 (PBC4-2[pBSEP5.8]) | 4.4±0.6 Flvd s^-1 (PSI)^-1 | – | – | –
3 | wild-type photosystem I purified from strain JVD-1B^H6 | 5.7±0.3 Flvd s^-1 (PSI)^-1 | – | – | –
